# Measurements as given in patent US20240131147A1.
# Target: HIV-1 Clade B Env RHPA on pseudotyped virus (HIV-1)
# Experiment: competition ELISA on coated RHPA pseudovirus; competitors: sera of MLA092- and MLA025-immunized mice diluted 1:400
substance,measurement,value
10E8 broadly neutralizing human anti-HIV-1 Env monoclonal antibody,concentration that completely inhibited the binding of sera,2 µg/mL
